The term Kd denotes a measure of binding affinity in units of concentration. In general, koff refers to the rate constant with which the complex falls apart. The term kon denotes the second-order rate constant of association.

The experiment concerns the target Recombinant SARS-CoV-2 Spike protein antigen (Z03501, Genscript) (SARS-CoV-2) (UniProt P0DTC2).

As to “Monoclonal antibody against the SARS-CoV-2 Spike protein (A02038, Genscript)”, the Kd was found to be 2.39 nM, the koff stood at 0.000603 s⁻¹ and the kon worked out at 252000 M⁻¹ s⁻¹.

The values are drawn from patent US20230341395A1.
